Experiment: soluble on expression in E. coli; label from the status in PepcDB or PDB records
For “MPKETPSKAAADALSDLEIKDSKSNLNKELETLREENRVKSDMLKEKLSKDAENHKAYLKSHQVHRHKLKEMEKEEPLLNEDKERTVLFPIKYHEIWQAYKRAEASFWTAEEIDLSKDIHDWNNRMNENERFFISRVLAFFAASDGIVNENLVENFSTEVQIPEAKSFYGFQIMIENIHSETYSLLIDTYIKDPKESEFLFNAIHTIPEIGEKAEWALRWIQDADALFGERLVAFASIEGVFFSGSFASIFWLKKRGMMPGLTFSNELICRDEGLHTDFACLLFAHLKNKPDPAIVEKIVTEAVEIEQRYFLDALPVALLGMNADLMNQYVEFVADRLLVAFGNKKYYKVENPFDFMENISLAGKTNFFEKRVSDYQKAGVMSKSTKQEAGAFTFNEDF”, the “soluble on expression in E. coli” value was “soluble”.
In the case of “MQHYLLDSNQRLNVSFSKDSVAAYYQCFNQPYRKEVPPLMCASLWPKFDLFKKYANSELILTKSAINQTQKIEVDTIYVGHLEDIECRQTRNITRYTMALTLTKNDQHVITVTQTFIKAMK”, the “soluble on expression in E. coli” value is reported as “not soluble”.
For “MGSDKIHHHHHHASPKKVAPEKKGVETINRATAEAHIGFLACDELEGREAGWKGGRIAGNYIISCLKQMGIKPLDGDYIQPFDVYHAERQVKGKRWQVHPDSIAELKKVVYQKLALRNILGKIEGKNPNEIVIIGAHYDHIGYDPMLEGDQIYNGADDNASGVQAVLQVARAFLATGEQPERTVIFAFWDGEEKGLLGSRYFAMNYPDIKKVKGYLNYDMIGRNNREDQPDYFVYFYTAAHQAFGDWLKKDIEDYRLQLSPDYRAWDNPVGGSDNGTFAKLGIPIIWYHTDAHPDYHLPGDETQKINWLKIVDITKASFLAMWKLANEKKY”, the “soluble on expression in E. coli” value was “not soluble”.
For “GMPEIHQSIAQHYHERTKYDPETIASKSQRLDWAKQPVPFKEYKIGSAIDLKPYLQETPEVFVNDTNGQWWQRLSRLLFRSYGLTARMPSMGNTVYLRAAPSAGGLYPAEVYVVSRGTPLLSPGLYNYQCRTHSLIHYWESDVWQSLQEACFWHPALESTQLAIIVTAVFYRSAWRYEDRAYRRICLDTGHLLGNIELSAAITDYRPHLIGGFIDEAVNDLLYIDPLQEGAIAVLPLADLLDIQQNISPGCTALPSATETNYPQVPDGELLKYFHHHTQISASITGKLNLPTVIQEKSLEDKYNFPFCLKISTVSAPIYWGENLSDLEITMHKRRSTRAYNGEELTFDELKALLDFTYQPQNYIDQSLDNSPDYFDLNLIETFIAVCGVQGLEAGCYYYAPKAQELRQIRFKNFRRELHFLCLGQELGRDAAAVIFHTSDLKSAIAQYGDRVYRYLHMDAGHLGQRLNLAAIQLNLGVSGIGGFFDDQVNEVLGIPNDEAVIYITTLGRPR”, the “soluble on expression in E. coli” value was “soluble”.
In the case of “MSRNLDSPVQTQMAVAVFKTPLTGASKMEGKQHHKHQHLQRQSSGRRVFVQTETGCVLGMELDRSDNVHTVKRRLQIALNFPTEESSLTYGDMVLTNDLSAVRNDSPLLLKRNFMHRSSSTPCLSPTGRDLQQKDRSGPIEILGHSDCFSIVKHMVKDIVKAMKMGVEPLPVHSGLGGAYYFRNKRGESVAIVKPTDEEPFAPNNPKGFVGKALGQPGLKSSVRVGETGFREVAAYLLDYGRFANVPPTALVKITHSVFNVNDGVKGNKPREKKLVSKIASFQKFVAHDFDASDHGTSSFPVTSVHRIGILDIRIFNTDRHGGNLLVKKLDGVGMFGQVELIPIDHGLCLPETLEDPYFEWIHWPQASLPFSDEEVDYIQSLDPVKDCDMLRRELPMIREACLRVLVLCTIFLKEASAYGLCLAEIGEMMTREFRPGEEEPSELEVVCIEAKRSVTERDVFSPRSDVVGEAEFQFDLDCDDLESVYSSKIQLTDDYFTKNPFSNGRSSLGKLEESIKEEEEDEEEEEDKTENTVPMIIMKDSFFSSAAFHDKAPSLSKLSTSMKNTHLSDTTRKNPKPLTRGKSENTSSGHKSANEQLPVSASFVKVADMKEDEWVLFLERFQELLGPAFAKRKTATLSKRQRLGTSCQF”, the “soluble on expression in E. coli” value is reported as “not soluble”.
For “MNNMSLSDIFERFDTSKDGKISWEEFRDAIHALSPSIPSEKLVEMFIQLDTNGDGQVDAAKFASCMDQTAQSSGGDVEKELKDAFKLYDINCDGKISANELHVVMTRLGEKCTVESCVGMVQAIDVDGDGYIRFVGV”, the “soluble on expression in E. coli” value was “soluble”.
In the case of “GPGSMLQSLVNSIVFVPPRDPNSLQRVQLLQRKRHMSFTSKKSGERISYFHFDPKGDLVTKDNPERVVRSSMVLLFHHGNAEDLGSAFSYAQSMACVFGVAVVVYDYCGYGFSGFPDAAKPAEVTEKSVYSDADHMYAHLLSLGYPAHRIIIVGRSVGGGPACYLAEKHHKKVGGLVLISTFTSCLRVVSSCCLPYLCCCVDLFPNYRRIEHIMECPVLVMHGTHDNVVPHHCSSELLEDIVARRNNALQRLLKKREGARANQAKRSSVLGAASTGPTNTTTASATIIVADEALVTAQPPLDGETVSVFDLYRRAYDGLPEAVRRVAEGRLDVTAADASIGVFHRWFAGCGHNDIEAREGHAFSDMFDYFVRFSTAFSMEREALLLAKPVTGAAKASRDSLNRADSEVRE”, the “soluble on expression in E. coli” value is reported as “not soluble”.
In the case of “MSLNCTLDELRQRIEAHRPRQLDTDQRFPQAAVLVPITRSDDPELVLTLRAAGLSTHGGEVAFPGGRRDPEDADLVRTALREAEEEIALPPGLVEVVGPLSTLVSRHGIEVTPYVAFIPDFVEYQPNDGEIAAVFNVPLSFFRDDPREVTHRIDYFGRSWYVPSYRFGEFKIWGLTAIMVVELVNLLYDDPIDLHTPPASFIKLSEGGSHHHHHH”, the “soluble on expression in E. coli” value is reported as “soluble”.
With “MRTHTGKIPDHFVPRISMTEEQRRVVFMLNSLLLDYPEEGFVDKLNAVEAQLDVLPLPVAAHVVEFLDAARVAGLRAMQEAYVETFDQRRRCSLFLTYYAVGDTRQRGTAILTFRQTLQQLGFESERDELPDHLCVVLEAAALADSSLFDAATQVLSAHRDGIEVLRAALDNLDSPYRYLIMSLCQALPEIDEETANSYMELIRSGPPAEMVGIGTPLPFPTSQPDIH” the “soluble on expression in E. coli” value was “not soluble”.
In the case of “MGSDKIHHHHHHMILCCGEALIDMLPRETTLGEKGFSPYAGGAVFNTGIALGRLGVASGFFTGLSDDMMGDILRDTLRASHVDFSYCATLSRPTTIAFVKLVDGHATYAFYDENTAGRMITEADLPALGEDCEALHFGAISLIPEPCGSTYEALLNREHKTRVISLDPNIRPGFIKDKAAHMARIRRMAALSDIVKFSDEDLAWFGLDGDEDTLARHWLHHGAKLVVVTRGADGAVGYTADHKVEVPSEKVTVVDTVGAGDTFDAGVLASLKMQNLLTKQQVAKLTEEQIAKALALGSKAAAVTVSRAGANPPFAHEIGL”, the “soluble on expression in E. coli” value is reported as “not soluble”.
For “MAHHHHHHMKEEIPQLQNLERDLLKQRNKYLSKVGNLLNKDVVISNDEDNNKVVTTWGVCKRLEVITDESSEENKSGKGGSKDGGSNKREVPSSSSISGGVVHPNSSIEGKKYYYHFDLLRKIVGANFKKGIQVAGHRGYYFTGAGFFLHNAILQYAINFLVSKNYTPVYPPFFMKKNIMEECAELDDFEETLYKIASSGGNSTATTGTASGALVSKNLNQNDELSRDDLFLIATSEQPLCALHKDETIESKYLPLKYAGVSSCFRKEAGAHGKDIRGILRVHQFDKIEQFCLSLPQTSSKVHKQMMKTCEEFYQSLNIPYRIVSIVSGALNNAAAIKYDLEGYFPSSNQYRELVSCSNCTDYQSNNLNVKYVDSSVRITDVKEDRKKKENTGDHQDDDDDDEIGSDHEEFLKNFHTESRNNVHLLNGTMVAAQRFLCCLLENYQNGEGIVVPEKLRPYMNNVDFIPFIE”, the “soluble on expression in E. coli” value was “not soluble”.
In the case of “MIRLVAFDLDGTIGDTIPLCLAAFREATTPYVDHELSDDEIARTFGLNEEGMINQVVYGDSREKALNDFYVIYEEMHAILCPKPFEGMKTLIGQLHERNVIVVLITGKGIRSCDITLKQFGMDGCFDRIETGSSEKNRKSEAMKDILLYYGFKSNEMIYVGDAVSDIEACYFVKIQCLSAAWAASTDCEQLEKYNSGYVFSSVRLLRDFL”, the “soluble on expression in E. coli” value is reported as “not soluble”.
In the case of “MGSDKIHHHHHHMIIEELHIVNFKSIAAADCRFSPKVNCLVGNNGMGKTNLLDALHFLSFCRSHLSVPDNMVVRHGEEMALLQGLYRDESGDGIELLLSIRPGKHKVLRRNKKEYERLSDHIGRFPLVIVSPQDYQLILGGSDERRRFMDQQLCQQDPRYLSALIQYNRHLQQRNTMLKQDRHDDALMDVLELQMGSYAAEICNKRSRFIEDFLPVFNDLYSDISGSAEKVSLSYRSHLADGIPLEELLRRSRPKDYLLGFSSCGVHKDELEMLLGGVLIRKIGSEGQNKTFLISMKLAQFRHQQLHGDETPILLLDDIFDKLDATRVERIIRLVGGNGFGQIFITDTNRKNLDEIIASWSEDYRLFKIENGQIFQ”, the “soluble on expression in E. coli” value is reported as “not soluble”.
With “MSLQLEYPLTNHMKRNMVLTKENQVIAYYRIRSETVGLTDFEKKRKTKKKVARTLKRLQENEGFEIVLLPVNADIRGKMGGMRQLVDKENHSVAVDKLMKTAQYLENEIGMVYEYIWLIGVPLVKKERSIDIKETFSTALNNLSEKVVKGLGLEVGVAEDWEEAYKDQEQEVYQNLSELLVERLTEDELYYYQAYQFLNNIQHEKKELLTSQNLDNLLANKITPFRGGLELSNEFGKSYIAHLPLGDCGVTIDGNHLLELVQKMSYPVSVKLQAGFAETKGQLALSGRSARARTRTKNIMEEAHLAGSKQKRKIVEGQHSLDDLDQKIDDDIPIIDWKAVLVISGNSKKQLRERKKNLMNRLDSLGIPLIRATFDNVYLFQATLLGNFQRFSTSNWQHTSTLETFSELNFFTSLHAGTKTGFYLGRVDATLEEKESRKQIVSGSKNIVYMNLLLANKQNIEGKKTNNPHWLVSGDTGNGKSVFSKWLFLYSSLLDVKVLYIDPKKEVRQQFMRTINDPEYQRKYPLDVAFIKTFNFVTLDVRKKENHGVLDPIVLFDETEAIATAKAMLNNINEDKWKMPHKTAINETVAEVVAERKAGKQVGFWHVIERLISHSEKDVHEMGRFLLSTIKGSILELAFSHGEVEGLSFEKKVTILEIEDLDLPTDRHDELDENQRLSVTLMFALGTFCSKFGSRNRKEETVTFFDEAWIFQSSPEGQKILKSMKRIGRSFNNFMVLITQSVNDVLDNGDGTGFGTVVCFDEVDNREGILRYLKLPVNEINLKWVSNMIQGQCLMKDMFNQVNRIVIDVIFEEWLELFETVDEGHHHHHH” the “soluble on expression in E. coli” value was “soluble”.
In the case of “MSRAVTRSRLNSTTDQFMAEKINESDILERLNQTHTVRGFFITTVDVLTEAIDALMQRIFRKDNFAVKSVVEPLLHDTGPLGDLTVRLKLLFGLGVIPDEVFHDIEHLIKLRNQLNHDATEYQFTDPQILAPIKALNLVKKMGMLHLNVVEPDDDIDLSFYHLQLQRQQQVIKSGLSLAIIQICNALNK”, the “soluble on expression in E. coli” value is reported as “not soluble”.
In the case of “ELIEPEPRPLIITPSVIELPILRRRDIYMEVANVSIGRAADALARHFDVFVQLPLPNVNIFEVSELHMALRDLASHDNVSGVCQGFCGEGIAGEALVILSDSSVSDLKKLMKVPADSEELEELELLMDISNILVGSFLNGLGEQSEVRFFQSPPVLLGQHISIDSIIESTTGAFKRTMTFEVSYNIEGTSIRCDLLFMFVDESLPLLDNKLAYLMEEF”, the “soluble on expression in E. coli” value is reported as “not soluble”.
For “MSLNFLEFEKPIAELEAKIEALRDVSRHGGDSAIDLDKEIEQLEKKSLELKKKIFSDLGAWETAQLARHPLRPYTLDYVQHVFEEFDELAGDRAFADDKAIVGGIARLEGRPVMIIGHQKGRETKEKVRRNFGMPKPEGYRKALRLMEMAERFNMPIITFIDTAGAYPGVGAEERGQSEAIAKNLKVMSGLKVPVICNVVGEGGSGGALAIGVGDYVNMLQYSTYSVISPEGCASILWRDSDKAPQAAEAMGLTAPRLKELELIDEIIEEPLGGAHRDHVKMAENMKATLLRQLEDLEQLDEESLRERRYQRLMNYGYC”, the “soluble on expression in E. coli” value was “not soluble”.
In the case of “MGSDKIHHHHHHAADGEGRGELSPKIKAGDLESKLIVPKNNGLKITGTFLDEISHDIPHQNWGEKEWDLDFQHMKRIGIDTVIMIRSGYRKFMTYPSPYLLKKGCYMPSVDLVDMYLRLAEKYNMKFYFGLYDSGRYWDTGDLSWEIEDNKYVIDEVWKMYGEKYKSFGGWYISGEISRATKGAIDAFRAMGKQCKDISNGLPTFISPWIDGKKAIMGTGKLTREDAVSVQQHEKEWNEIFDGIHEVVDACAFQDGHIDYDELDAFFTVNKKLADKYGMQCWTNAESFDRDMPIRFLPIKFDKLRMKLEAAKRAGYDKAITFEFSHFMSPQSAYLQAGHLYDRYREYFEIK”, the “soluble on expression in E. coli” value is reported as “not soluble”.
